Source: article PMC7738341

How the values were obtained:
[1] = biological target: tubulin (microtubules) (human (endogenous in HeLa)) (UniProt P68363)
[2] = biological target: tubulin (microtubules) (human (endogenous in HeLa)) (UniProt P68363); test: FRAP; live HeLa cells expressing the CST, 37°C, 5% CO2; EYFP bleached in a circular ROI of 2 μm radius in the cytoplasm; recovery curves fitted by a two-phase exponential association function; the phase with lower mobility is named MTs-bound fraction

Chain of UniProt P68363 (P68363 whole entry, chain 1 of 2): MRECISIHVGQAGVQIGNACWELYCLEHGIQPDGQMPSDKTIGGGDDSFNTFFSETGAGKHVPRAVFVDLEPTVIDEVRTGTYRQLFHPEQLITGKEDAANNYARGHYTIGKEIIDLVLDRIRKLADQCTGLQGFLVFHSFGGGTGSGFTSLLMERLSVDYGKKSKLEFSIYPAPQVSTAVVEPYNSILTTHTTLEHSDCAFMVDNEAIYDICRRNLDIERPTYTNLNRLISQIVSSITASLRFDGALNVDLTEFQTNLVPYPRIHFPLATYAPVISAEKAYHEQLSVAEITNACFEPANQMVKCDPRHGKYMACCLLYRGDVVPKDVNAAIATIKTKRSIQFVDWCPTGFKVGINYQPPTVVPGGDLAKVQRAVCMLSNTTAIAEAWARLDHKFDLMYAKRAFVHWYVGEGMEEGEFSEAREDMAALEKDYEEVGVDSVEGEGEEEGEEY
Chain of UniProt P68363 (P07437 whole entry, chain 2 of 2, further chain): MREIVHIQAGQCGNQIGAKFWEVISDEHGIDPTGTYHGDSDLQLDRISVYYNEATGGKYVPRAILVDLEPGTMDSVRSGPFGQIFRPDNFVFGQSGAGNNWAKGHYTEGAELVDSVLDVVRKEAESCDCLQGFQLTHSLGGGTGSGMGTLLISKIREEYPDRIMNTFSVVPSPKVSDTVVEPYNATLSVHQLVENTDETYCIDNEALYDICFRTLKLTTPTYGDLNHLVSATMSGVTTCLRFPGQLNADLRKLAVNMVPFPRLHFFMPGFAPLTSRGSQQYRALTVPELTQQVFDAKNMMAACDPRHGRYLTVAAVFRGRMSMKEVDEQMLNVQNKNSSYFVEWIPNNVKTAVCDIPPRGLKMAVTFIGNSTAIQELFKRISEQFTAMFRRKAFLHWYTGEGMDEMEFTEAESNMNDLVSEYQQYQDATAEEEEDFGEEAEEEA

Substance	FRAP mobile fraction (Mob calc) in live HeLa cells [1]	MTs-bound fraction [2]
Conformational Sensitive Tau with the Q336H mutation (CST^Q336H) (from UniProt P10636-8 1-441) (natural protein)	79%	
Conformational Sensitive Tau, wild type (CST^WT) (from UniProt P10636-8 1-441) (natural protein)		61%
